Results taken from US20210355221A1, “Targeting the Non-Canonical NFkB Pathway in Cancer Immunotherapy” (The General Hospital Corporation, priority 2018, published 2021).

B1: IL-12: recombinant IL-12 in mouse studies; recombinant human IL-12p70 (PeproTech) in the human ex vivo studies (protein, UniProt P29459 23-219; P29460 23-328, looked up)
Interleukin-12 subunit alpha: RNLPVATPDPGMFPCLHHSQNLLRAVSNMLQKARQTLEFYPCTSEEIDHEDITKDKTSTVEACLPLELTKNESCLNSRETSFITNGSCLASRKTSFMMALCLSSIYEDLKMYQVEFKTMNAKLLMDPKRQIFLDQNMLAVIDELMQALNFNSETVPQKSSLEEPDFYKTKIKLCILLHAFRIRAVTIDRVMSYLNAS
Interleukin-12 subunit beta: IWELKKDVYVVELDWYPDAPGEMVVLTCDTPEEDGITWTLDQSSEVLGSGKTLTIQVKEFGDAGQYTCHKGGEVLSHSLLLLHKKEDGIWSTDILKDQKEPKNKTFLRCEAKNYSGRFTCWWLTTISTDLTFSVKSSRGSSDPQGVTCGAATLSAERVRGDNKEYEYSVECQEDSACPAAEESLPIEVMVDAVHKLKYENYTSSFFIRDIIKPDPPKNLQLKPLKNSRQVEVSWEYPDTWSTPHSYFSLTFCVQVQGKSKREKKDRVFTDKTSATVICRKNASISVRAQDRYYSSSWSEWASVPCS

Key:
[1] = test system: Flt3L-derived bone marrow DCs; test: Flt3L-derived bone marrow DCs cultured in vitro with AZD5582, IL-12p40 transcripts; assay type: cell-based; conditions: 24 hours, various concentrations of AZD5582
Protocol: FIGS. 13A-C. IL-12 Expressing Cells Express More CD40 and […] can Induce IL-12 Production In vitro. (A) Flow cytometry of MC38 tumors from IL-12p40-eYFP reporter mice, stained for CD40 expression; n=7 per group. (B) Flow cytometry of CD40 expression from the following tumor immune cell populations: Non-Antigen Presenting Cells (non-APCs, defined as F4/80−CD11c−MHCII−), macrophages (F4/80+) and IL-12+ DCs (CD11chi MHCIIhi IL-12+); n=4 per group. (C) Flt3L-derived bone marrow DCs were cultured in vitro with various concentrations of AZD5582 for 24 hours, and were harvested for RNA. Shown is fold change expression of IL-12p40 transcripts compared to untreated conditions (n=3 per condition). Results are representative of at least 2 independent experiments. ****p<0.0001; Student's two tailed t-test.

[2] = test system: MC38 tumors; test: MC38 tumor model: tumor growth, survival, re-challenge; assay type: in vivo, mice; conditions: for antitumor response, MC38 tumors: MC38 tumor-bearing mice, treatment as labelled
Protocol: MC38 tumor cell lines were obtained from Dr. Mark Smyth (QIMR Berghofer). MC38 cells were implanted at 2×10^6 cells in the flank. B16F10 cell lines were obtained from ATCC. B16F10 cells were implanted intradermally at 0.5×10^6 cells in the flank. All tumor models were allowed to grow for one week prior to therapy. Tumor sizes were approximately 75 mm^3 before treatment initiation, and starting tumor volumes were normalized between treatment groups. Percent tumor changes were calculated as percent difference of mouse tumor volume from pre-treatment baseline, measured using digital caliper. Lung seeding B16F10 models received 0.5×10^6 cells intravenously and were allowed to grow for 10 days from the point of implantation. Mouse tumors were allowed to grow to a maximum of 2 cm in diameter, or until tumor ulceration occurred. These were considered as endpoints for survival experiments in accordance with MGH IACUC regulations.
(§1) Tumor bearing mice, with a tumor size of approximately 75 mm^3, were treated with 200 μg of aPD-1 and/or 100 μg of aCD40 intraperitoneally for immunotherapy studies. For combination treatment studies, both aPD-1 and aCD40 were administered at the same time. For IL-12 neutralization studies, mice were dosed with 500 μg of anti-IL-12p40 Clone 17.8 daily for 5-7 days following aPD-1 therapy. Neutralization of IFN-γ in vivo was performed by administering 1 mg of anti-IFN-γ Clone XMG1.2 initially with 500 μg of anti-IFN-γ dosed daily intraperitoneally for days 1-3. The cIAP1/2 inhibitor AZD5582 (Hennessy et al., 2013) was purchased from Selleck Chem and was resuspended in sterile saline. Mice received a single dose of AZD5582 at 10 mg/kg, intraperitoneally. […]
Long-term surviving mice from aPD-1 and aCD40 combination therapy were re-challenged with either MC38 or B16F10 tumors at 50 days following primary tumor rejection. […] Naive C57BL/6J mice were implanted alongside re-challenge mice, and these mice were monitored for tumor growth for 2 weeks following implantation. […]

[3] = test system: IL-12p40-eYFP^+ cells; test: Intravital imaging of MC38 tumors in IL-12p40-eYFP reporter mice; assay type: in vivo; conditions: after 48 hours compared to baseline
Protocol: as §1, with “saline.” for “saline. Mice received a single dose of AZD5582 at 10 mg/kg, intraperitoneally.”
(§2) Interferon gamma reporter (IFN-γ-eYFP) or IL-12p40 reporter (IL12p40-eYFP) mice were anesthetized and dorsal skin-fold window chambers were installed as previously described (Thurber et al., 2013) and mice were treated with analgesic (Buprenorphine 0.1 mg/kg/day) for 3 days following chamber implantation. […] Anesthetized mice were kept on a heating pad kept at 37° C., vital signs monitored and mice were imaged using an Olympus FluoView FV1000MPE confocal imaging system (Olympus America). […] Sequential scanning (5 μm slices) with 405, 473, 559, and 635 nm lasers was performed using voltage and power settings that were optimized using fluorescence minus-one control mice prior to time lapse acquisition. […]

[4] = test system: human tumor-infiltrating CD8^+ T cells; test: IL-12 ex vivo studies: IFN-γ ELISA of stimulated patient tumor-infiltrating CD8+ T cells; assay type: cell-based; conditions: aCD3 stimulation with IL-12, six cancer patients, 3 days
Excerpt: IL-12 ex vivo studies: Fresh tumor resections from six cancer patients undergoing surgical treatment at University Hospital Basel, Switzerland were used to assess whether IL-12 can directly activate human tumor-infiltrating CD8^+ T cells upon isolation of these cells ex vivo. Tumor tissue (two lung adenocarcinomas, three squamous cell carcinomas and one synovial sarcoma) was collected from six different patients undergoing primary surgical treatment between November 2015 and November 2017. The study was approved by the local Ethical Review Board (Ethikkommission Nordwestschweiz) and all patients consented in writing to the analysis of their tumor samples. The solid tumor lesions were mechanically dissociated and enzymatically digested using accutase (PAA), collagenase IV (Worthington), hyaluronidase (Sigma) and DNAse type IV (Sigma), directly after excision. Single cell suspensions were prepared and cryopreserved in liquid nitrogen in 90% fetal calf serum (FCS, Brunschwig Pan Biotech) and 10% dimethylsulfoxide (DMSO, Sigma) until further usage. […] Sorting purity was measured by reanalyzing the sorted cells and always reached >95% purity. […] IFN-γ secreted by these cultures was then measured by enzyme-linked immunosorbent assay according to the instructions by the manufacturer (BD, OptEIA human IFN-γ ELISA set). […]

[5] = test system: IFN-γ-eYFP^+ cells; test: Intravital imaging of MC38 tumors in IFN-γ-eYFP reporter mice; assay type: in vivo; conditions: recombinant IL-12, by day four, in the absence of aPD-1
Protocol: as §1, with “saline.” for “saline. Mice received a single dose of AZD5582 at 10 mg/kg, intraperitoneally.”
as §2

[6] = test system: Tumor-infiltrating CD8^+ T cells isolated from MC38 tumors; test: In vitro restimulation of tumor-infiltrating CD8+ T cells isolated from MC38 tumors (intracellular IFN-γ, flow cytometry); assay type: cell-based, mice; conditions: aCD3/CD28 stimulation with IL-12 (20 ng/ml), 72 hours
Protocol: Tumor tissue or tumor draining lymph nodes were isolated from mice and minced using surgical scissors. Tissues were then digested using 0.2 mg/ml Collagenase II (Worthington) in RPMI 1640 media (CellGro) at 37° C. for 30 minutes and then strained through a 40 μm filter (BD Falcon). Cell suspensions were incubated with Fc Block TruStain FcX Clone 93 (Biolegend) in PBS containing 0.5% BSA and 2 mM EDTA before staining with fluorochrome labeled antibodies. Antibodies against CD11b (M1/70, Biolegend), CD8a (53-6.7, Biolegend), CD45 (30-F11, BD), F4/80 (BM8, Biolegend), CD11c (N418, Biolegend), MHC II I-A/I-E (M5/114.15.2, Biolegend), CD103 (2E7, Biolegend), IFN-γ (XMG1.2, Biolegend) were used for marker staining. 7AAD viability staining was used to exclude dead cells from analysis. Samples were run on a LSR II flow cytometer and analyzed using FlowJo software (Treestar). For intracellular cytokine staining, samples were incubated for 5 hours with GolgiPlug (BD) at 1 μl per ml of culture media. Cells were then surface stained and then fixed and permeabilized using the BD Cytofix/Cytoperm kit (BD) according to manufacturer's protocol and stained for intracellular cytokines.
MC38 tumors were digested into single cell suspensions similar to tissue processing for flow cytometry analysis and were passed through a 40 μm filter. […]

[7] = test system: B16F10 melanoma; test: B16F10 melanoma tumor model: tumor growth, survival, re-challenge; assay type: in vivo; conditions: B16F10 melanoma-bearing mice, treatment as labelled
Protocol: Tumor bearing mice, with a tumor size of approximately 75 mm^3, were treated with 200 μg of aPD-1 and/or 100 μg of aCD40 intraperitoneally for immunotherapy studies. For combination treatment studies, both aPD-1 and aCD40 were administered at the same time. […] Mice received a single dose of AZD5582 at 10 mg/kg, intraperitoneally. […]

Row | Molecule | IL-12 production in vitro [1] | antitumor response, MC38 tumors [2] | fold increase of tumor-infiltrating IL-12^+ cells [3] | effect of FTY720 on the antitumor response to aPD-1 ([2]; MC38, FTY720 1.25 mg/kg i.p. daily with aPD-1) | IFN-γ production by CD8^+ T cells [4] | fold increase of IFN-γ-eYFP^+ cells [5] | IFN-γ production by stimulated CD8^+ T cells [6] | antitumor response, B16F10 tumors [7]
1 | CN[C@@H](C)C(=O)N[C@H](C(=O)N1CCC[C@H]1C(=O)N[C@H]1c2ccccc2C[C@H]1OCC#CC#CCO[C@@H]1Cc2ccccc2[C@@H]1NC(=O)[C@@H]1CCCN1C(=O)[C@@H](NC(=O)[C@H](C)NC)C1CCCCC1)C1CCCCC1 [AZD5582] | potently enhanced IL-12 production in vitro | provided antitumor effects in vivo | 4.0±1.3 fold | – | – | – | – | –
2 | CCCCCCCCc1ccc(CCC(N)(CO)CO)cc1 [FTY720] | – | – | – | did not affect the antitumor response to aPD-1 treatment | – | – | – | –
3 | B1 | – | robust antitumor responses | – | – | increased IFN-γ production by CD8^+ T cells in five out of six patients | 5.9±0.7 fold | substantially increased IFN-γ production | substantial antitumor effect
